# Data reported in PMC6079076, “Structure of the mouse TRPC4 ion channel” (Nature Communications, 2018).
# Biological target: the molecule itself
# Assay: cryo-EM structure; single-particle cryo-EM of purified TRPC4 in digitonin, 30 mM HEPES, 150 mM NaCl, 1 mM DTT, pH 7.5; apo state; C4 symmetry imposed; 3.3 Å
protein,measurement,value
"mouse TRPC4 (residues a.a. 1–758, excluding a.a. 759–974) (domain or fragment, UniProt Q9QUQ5 1-758, looked up, mouse TRPC4, a.a; 1-758 of 974 (a.a. 759-974 left out); MBP tag removed with PreScission protease; also called mTRPC4; truncated TRPC4; source: HEK293S GnTI- cells, BacMam baculovirus, purified (amylose resin, Superose 6); not shown: MBP, N-terminal, cleaved) MAQFYYKRNVNAPYRDRIPLRIVRAESELSPSEKAYLNAVEKGDYASVKKSLEEAEIYFKININCIDPLGRTALLIAIENENLELIELLLSFNVYVGDALLHAIRKEVVGAVELLLNHKKPSGEKQVPPILLDKQFSEFTPDITPIILAAHTNNYEIIKLLVQKGVSVPRPHEVRCNCVECVSSSDVDSLRHSRSRLNIYKALASPSLIALSSEDPFLTAFQLSWELQELSKVENEFKSEYEELSRQCKQFAKDLLDQTRSSRELEIILNYRDDNSLIEEQSGNDLARLKLAIKYRQKEFVAQPNCQQLLASRWYDEFPGWRRRHWAVKMVTCFIIGLLFPVFSVCYLIAPKSPLGLFIRKPFIKFICHTASYLTFLFLLLLASQHIDRSDLNRQGPPPTIVEWMILPWVLGFIWGEIKQMWDGGLQDYIHDWWNLMDFVMNSLYLATISLKIVAFVKYSALNPRESWDMWHPTLVAEALFAIANIFSSLRLISLFTANSHLGPLQISLGRMLLDILKFLFIYCLVLLAFANGLNQLYFYYEETKGLSCKGIRCEKQNNAFSTLFETLQSLFWSIFGLINLYVTNVKAQHEFTEFVGATMFGTYNVISLVVLLNMLIAMMNNSYQLIADHADIEWKFARTKLWMSYFEEGGTLPTPFNVIPSPKSLWYLVKWIWTHLCKKKMRRKPESFGTIGRRAADNLRRHHQYQEVMRNLVKRYVAAMIREAKTEEGLTEENVKELKQDISSFRFEVLGLLRGSK",stoichiometry N,4
